Measurements taken from article PMC7126439.

What was measured:
[1] = molecular target: GCN4-pA; assay: AUC
[2] = molecular target: GCN4-pV; assay: AUC

Substance	stoichiometry N [1]	stoichiometry N [2]
GCN4-pA (peptide)	4	
GCN4-pV (peptide)		4
